We go through six proteins from patent US8013137B2, “Modified enteropeptidase protein” (National University Corporation Hokkaido University, priority 2006, dated 2011).

Where a chain is given by its changes, count along the chain named. Numbers in names are those of the source.

Substrate in series [1]: Cc1cc(=O)oc2cc(NC(=O)[C@H](CCCNC(=N)N)NC(=O)[C@H](C)NC(=O)[C@H](CCC(=O)OCc3ccccc3)NC(=O)OC(C)(C)C)ccc12
In words: purified protein, by the assay type.

Substrate in series [2]: Cc1cc(=O)oc2cc(NC(=O)[C@H](CCCNC(=N)N)NC(=O)[C@H](Cc3ccccc3)NC(=O)OCc3ccccc3)ccc12
In words: purified protein, by the assay type.

Substrate in series [3]: Cc1cc(=O)oc2cc(NC(=O)[C@H](CCCNC(=N)N)NC(=O)[C@H](Cc3ccccc3)NC(=O)[C@@H]3CCCN3)ccc12
In words: purified protein, by the assay type.

Substrate in series [4]: Cc1cc(=O)oc2cc(NC(=O)[C@H](CCCNC(=N)N)NC(=O)[C@H](C)NC(=O)[C@H](CCC(=O)OCc3ccccc3)NC(=O)OC(C)(C)C)ccc12
In words: Kinetic parameters for MCA-containing peptide substrates, porcine EP. Type of series: biochemical. Particulars: other: Porcine.

Substrate in series [5]: Cc1cc(=O)oc2cc(NC(=O)[C@H](CCCNC(=N)N)NC(=O)[C@H](Cc3ccccc3)NC(=O)OCc3ccccc3)ccc12
The series is described as above. The format is biochemical. The note with it: other: Porcine.

Substrate in series [6]: Cc1cc(=O)oc2cc(NC(=O)[C@H](CCCNC(=N)N)NC(=O)[C@H](Cc3ccccc3)NC(=O)[C@@H]3CCCN3)ccc12
The series is described as above. The format is biochemical. The note with it: other: Porcine.

Substrate in series [7]: Cc1cc(=O)oc2cc(NC(=O)[C@H](CCCNC(=N)N)NC(=O)[C@H](C)NC(=O)[C@H](CCC(=O)OCc3ccccc3)NC(=O)OC(C)(C)C)ccc12
In words: Kinetic parameters for MCA-containing peptide substrates, EP-1(WT). Type of series: biochemical, Japanese Medaka (Oryzias latipes). Particulars: other: EP-1(WT).

Substrate in series [8]: Cc1cc(=O)oc2cc(NC(=O)[C@H](CCCNC(=N)N)NC(=O)[C@H](Cc3ccccc3)NC(=O)OCc3ccccc3)ccc12
Described as above. Type of series: biochemical, Japanese Medaka (Oryzias latipes). The note with it: other: EP-1(WT).

Substrate in series [9]: Cc1cc(=O)oc2cc(NC(=O)[C@H](CCCNC(=N)N)NC(=O)[C@H](Cc3ccccc3)NC(=O)[C@@H]3CCCN3)ccc12
The description is as above. Particulars: other: EP-1(WT). Type of series: biochemical, Japanese Medaka (Oryzias latipes).

B1: medaka EP-1 enteropeptidase serine protease domain (parent SEQ ID NO: 2), variant P193E (Oryzias latipes; P970E) (protein)
chain: CGQRQVYNSKENNGVPRVVGGVNAEKGAWPWMVSLHWRGRHGCGASLIGRDWLLTAAHCVYGKNTHLQYWSAVLGLHAQSSMNSQEVQIRQVDRIIINKNYNRRTKEADIAMMHLQQPVNFTEWVLPVCLASEDQHFPAGRRCFIAGWGRDAEGGSLPDILQEAEVPLVDQDECQRLLPEYTFTSSMLCAGYEEGGVDSCQGDSGGPLMCLEDARWTLIGVTSFGVGCGRPERPGAYARVSAFTSWIAETRRSSFSDLD
As a reminder, the Km is the substrate concentration at which the rate is half of its maximum. In general, kcat refers to the number of substrate molecules converted per active site and unit of time at saturation. For orientation: kcat/Km means the second-order rate constant that governs catalysis at low substrate concentration. As to B1, in series [1] (other: P193E), the Km stood at 200 µM, the kcat worked out at 0.0383 s⁻¹ and the kcat/Km came to 200 M⁻¹ s⁻¹. In [2] (other: P193E), the Km amounted to 200 µM, the kcat is 0.0283 s⁻¹ and the specificity constant (kcat/Km) was determined as 150 M⁻¹ s⁻¹. In [3] (other: P193E), the Michaelis-Menten constant (Km) was 1000 µM, the kcat worked out at 0.45 s⁻¹ and the catalytic efficiency (kcat/Km) worked out at 450 M⁻¹ s⁻¹.

B2: medaka EP-1 enteropeptidase serine protease domain (parent SEQ ID NO: 2), variant K63R (Oryzias latipes; K840R) (protein)
chain: B1 chain with K63R, E193P
Consider B2, for which, in series [1] (other: K63R), the Km stood at 1200 µM, the kcat worked out at 0.2 s⁻¹ and the kcat/Km was determined as 167 M⁻¹ s⁻¹. Also, in series [2] (other: K63R), the Michaelis constant (Km) turned out to be 100 µM, the turnover number (kcat) was 0.0233 s⁻¹ and the kcat/Km was determined as 233 M⁻¹ s⁻¹. In [3] (other: K63R), the Km was 1100 µM, the catalytic constant (kcat) turned out to be 0.183 s⁻¹ and the specificity constant (kcat/Km) was 167 M⁻¹ s⁻¹.

B3: porcine EP serine protease domain (Ile800 to His1034) (Sus scrofa) (protein)
chain: IVGGNDSREGAWPWVVALYYNGQLLCGASLVSRDWLVSAAHCVYGRNLEPSKWKAILGLHMTSNLTSPQIVTRLIDEIVINPHYNRRRKDSDIAMMHLEFKVNYTDYIQPICLPEENQVFPPGRICSIAGWGKVIYQGSPADILQEADVPLLSNEKCQQQMPEYNITENMMCAGYEEGGIDSCQGDSGGPLMCLENNRWLLAGVTSFGYQCALPNRPGVYARVPKFTEWIQSFLH
On to B3, for which the Michaelis-Menten constant (Km) was found to be 300 µM in series [4], 200 µM in series [5] and 3900 µM in series [6]. Further, the values for the kcat in series [4], in series [5] and in series [6] were 1.83 s⁻¹, 0.917 s⁻¹ and 5 s⁻¹, respectively. Besides, the specificity constant (kcat/Km) worked out at 6170 M⁻¹ s⁻¹ in [4], 4670 M⁻¹ s⁻¹ in series [5] and 1280 M⁻¹ s⁻¹ in [6].

B4: medaka EP-1 enteropeptidase serine protease domain (parent SEQ ID NO: 2), variant T105E (Oryzias latipes; T882E) (protein)
chain: VVGGVNAEKGAWPWMVSLHWRGRHGCGASLIGRDWLLTAAHCVYGKNTHLQYWSAVLGLHAQSSMNSQEVQIRQVDRIIINKNYNRREKEADIAMMHLQQPVNFTEWVLPVCLASEDQHFPAGRRCFIAGWGRDAEGGSLPDILQEAEVPLVDQDECQRLLPEYTFTSSMLCAGYPEGGVDSCQGDSGGPLMCLEDARWTLIGVTSFGVGCGRPERPGAYARVSAFTSWIAETRRSSFSDLD
As to B4, in series [1] (other: T105E), the Km is 1300 µM, the kcat was 0.183 s⁻¹ and the catalytic efficiency (kcat/Km) worked out at 150 M⁻¹ s⁻¹. Besides, in series [2] (other: T105E), the Km worked out at 100 µM, the turnover number (kcat) amounted to 0.0333 s⁻¹ and the kcat/Km stood at 333 M⁻¹ s⁻¹. Also, in [3] (other: T105E), the Km amounted to 1300 µM, the kcat was 0.267 s⁻¹ and the kcat/Km came out at 200 M⁻¹ s⁻¹.

B5: medaka EP-1 enteropeptidase serine protease domain, wild type, SEQ ID NO: 2 (Oryzias latipes) (protein)
chain: B4 chain with E88T
On to B5, for which, in series [7], the Km came to 200 µM, the kcat came out at 0.112 s⁻¹ and the kcat/Km is 567 M⁻¹ s⁻¹. For the same protein, in series [8], the Michaelis constant (Km) was 100 µM, the kcat stood at 0.0483 s⁻¹ and the kcat/Km came to 483 M⁻¹ s⁻¹. In addition, in series [9], the Michaelis-Menten constant (Km) stood at 10000 µM, the kcat was 2.33 s⁻¹ and the kcat/Km is 233 M⁻¹ s⁻¹.

B6: medaka EP-1 enteropeptidase serine protease domain (parent SEQ ID NO: 2), variant E173A, SEQ ID NO: 4 (Oryzias latipes; E950A) (protein)
chain: B4 chain with E88T, E156A
With B6, in series [1] (other: E173A), the Michaelis-Menten constant (Km) came out at 1000 µM, the turnover number (kcat) was determined as 0.167 s⁻¹ and the kcat/Km was 167 M⁻¹ s⁻¹. Moreover, in series [2] (other: E173A), the Km worked out at 400 µM, the catalytic constant (kcat) came to 0.0383 s⁻¹ and the catalytic efficiency (kcat/Km) was 100 M⁻¹ s⁻¹. In [3] (other: E173A), the Km stood at 1000 µM, the turnover number (kcat) was 0.153 s⁻¹ and the catalytic efficiency (kcat/Km) is 150 M⁻¹ s⁻¹.
